Assays:
TB40/E UL32-eGFP virus = assay: Virus attachment assay on ARPE-19 cells; type: cell-based, Human cytomegalovirus; conditions: 10 μg/mL, 0 or 120 minutes
Experimental: ARPE-19 cells were plated in glass bottom 12 well plates the day before infection. […] Infection occurred at 37° C. for 0-2 hrs before cells were washed using a citrate wash buffer (pH 3.2) for two minutes at RT. Cells were then washed with PBS and fixed in 4% PFA for 20 minutes at RT before being stained with Hoechst. Plates were read using a Cytation 3 Cell Imaging Multi-Mode Reader (BioTek, Winooski, VT) and images were acquired using brightfield and the 405 and 488 nm lasers.
To visualize HCMV virion attachment and entry, a recombinant HCMV strain was used that expresses eGFP fused to the C terminus of the tegument protein pUL32. The tegument protein is tightly associated with the capsid and allows for visualization of virus entry by immunofluorescence. […] Cells were incubated with the virus/antibody for either 0 or 120 minutes before being washed with citrate buffer (pH 3.2) for two minutes and fixed with PFA.

HCMV AD169R [1] = assay: Neutralization by fully human versus chimeric antibody versions; type: cell-based, Human cytomegalovirus; conditions: fully human (hu) version, human IgG1 Fc
Experimental: Increasing concentrations of monoclonal antibodies (0.016-50 μg/mL) were incubated with AD169R (MOI 0.2) to assess neutralizing capacity. Percent infection was quantified using GFP expression at 18 hpi and normalized based on infection with virus alone (no antibody). CMV hyperimmune globulin (CytoGam®) was used as a control (trace on the upper right in FIGS. 8A, 8B, 8C, and 8D). FIG. 8A. […] FIG. 8B. Fully human (hu, comprising human variable and human constant regions) and chimeric (ms, comprising human variable and murine constant regions) versions of 9A12. FIG. 8C. Fully human (hu, comprising human variable and human constant regions) and chimeric (ms, comprising human variable and murine constant regions) versions of 13G1. FIG. 8D. Fully human (hu, comprising human variable and human constant regions) and chimeric (ms, comprising human variable and murine constant regions) versions of 14E1.
For this, the mouse Fc region of these mAbs was replaced with the human IgG1 Fc region.

HCMV AD169R [2] = assay: FFU assay in ARPE-19 cells in combination with ganciclovir; type: cell-based, Human cytomegalovirus; conditions: combined with ganciclovir (2.5 μM); antibody 10 μg/mL; Day 12
Experimental: Relative number of plaques present 12 dpi in ARPE-19 cells infected with AD169R. Infection was performed in the presence of antibody at three different concentrations +/−ganciclovir (2.5 μM). On day 12 post infection GFP images were taken and the plaque number was calculated relative to virus alone controls on each plate. M2E10 and CytoGam® were used as negative and positive controls respectively. Each condition was done in triplicate and 10,000 μm^2 was used as a cutoff for plaque area.
ARPE-19 or NHDF cells were plates at 50,000 cells per well in a 24 well and infected the following day. TB40/E (MOI 0.01) and AD169RBAD^rUL131 (MOI 0.1 & 0.01) was incubated with either 10 μg/mL or 0.5 μg/mL of antibody one hour prior to addition to cells. Following a 2 hr incubation at 37° C., 5% CO2 the inoculum was removed, and cells were overlaid with 1% low melt temperature sea agarose overlay. The overlay was allowed to solidify at room temp and then 500 μL of media was added before cells were put back into the incubator. […]
To test efficacy of the gH antibodies in combination with ganciclovir, the FFU assay was performed in ARPE-19 cells. […] M2E10 and CytoGam® were used as negative and positive controls respectively and the relative number of plaques was calculated based on cells which received virus alone without any antibody (black bar for each graph). […]

[3] = test system: recombinant HCMV pentamer (strain VR1814) consisting of gH, gL, UL128, UL130 and UL131A; assay: Biolayer interferometry (Octet RED) KD determination; type: binding, Human cytomegalovirus
Experimental: Biolayer interferometry assays were performed using the Octet RED instrument (ForteBio, Inc.) to determine the association (kon) and dissociation (kdis) constants for each antibody. Purified monoclonal antibody was loaded onto the anti-mouse Fc IgG capture (AMC) biosensors using 5-fold dilutions (50-0.016 μg/mL in PBS) for 10 minutes. To determine the kon, the sensors were exposed to the recombinant HCMV pentamer (strain VR1814) consisting of gH, gL, UL128, UL130 and UL131A (Native Antigen, CMV-PENT-100) at a constant concentration of 100 μg/mL in PBS for 3 minutes. To determine the kdis, dissociation was measured over the course of 3 minutes while the sensors were in PBS buffer. KD values were calculated as a ratio of […].
To examine this further, 293 Expi cells were transfected with wildtype gH, wildtype gL, cotransfected with gH and gL (gH+gL), transfected with a single plasmid expressing both gH and gL (gH/gL) or co-transfected a variety of gH mutants and gL. Three days post transfection the cells were harvested and stained with unlabeled primary at 0.5 μg/mL using the antibodies indicated. Transfection efficiency was determined by measuring GFP expression on day 3 and binding was determined by percent Alexa Fluor 647 positive cells using a conjugated secondary. […] The binding profile for 1G9 is most similar to 10F8. Although the ratios of gH, gL and gO plasmid were 1:1:1 it is not certain how efficiently the trimer was assembled following transfection. […] To discern minute differences in antibody binding biolayer interferometry was used, immobilizing each of the purified monoclonal antibodies (50-0.016 μg/mL) onto anti-mouse IgG Fc capture (AMC) biosensors and exposing the sensors to recombinant pentamer (100 μg/mL).

HCMV = assay: Virus neutralization, summary statements across cell types and strains; type: cell-based, Human cytomegalovirus; conditions: MRC5; TB40/E, AD169R, TR, Towne
Experimental: AD169R^BADrUL131, TB40E, TR, or Towne was pre-incubated with monoclonal antibodies (starting dilution of 100 μg/mL antibody) was diluted using 5 fold dilutions to achieve a final range of 50-0.016 μg/mL antibody after addition to 25 μL of media containing virus; final MOI 0.2) and incubated at 4° C. for 1 hr before the inoculum was added to the appropriate cell types (ARPE-19, HTR-svNeo, MRC5, or NHDF cells at 10,000 cells per well) for 2 hrs at 37° C., 5% CO2. Following infection, the inoculum was removed and replaced with 100 μL complete DMEM/F-12 media before an overnight incubation at 37° C., 5% CO2.
Cells were fixed using 4% paraformaldehyde (PFA) for 20 minutes at room temp. Cells were then permeabilized using 0.3% Triton X-100 (Thermo Fisher, #HFH10) in PBS and stained with an affinity-purified, polyclonal rabbit anti-IE1-1/2 (0.7 ng/ml) primary and an anti-rabbit Alexa Fluor 647 (1:1000) secondary. To quantify total cells per well, Hoechst (Molecular Probes, #H3570) was diluted 1:100,000 in PBS and incubated with cells for 20 minutes at room temp. Virus neutralization was quantified using a Celigo cytometer (Nexelcom Bioscience). Percent infection was calculated using ((#IE1-1+)/(#Hoechst+))*100 events per well and normalized to the percent infection when an irrelevant, non-neutralizing, or no antibody was used.
The student's unpaired, two tailed t tests were performed using the GraphPad Prism software (La Jolla, CA). An asterisk identifies statistical significance of P<0.05 or less.

B1: 15G11: anti-HCMV gH/gL monoclonal antibody, fusion 1; VH SEQ ID NO:52, VL SEQ ID NO:53; chimeric and fully human IgG1 versions (antibody, V domains shown)
VH: QVQLQESGPGLVKPSQTLSLTCTVSGGSISSGYYYWNWIRQHPGKGLECIGYIYYSGTTYYNPSLKSRLFISVDTSKNQFSLKLRSVTAADTAVYYCARGGLGAFDIWGQGTMVTVSS
VL: EIVLTQSPGTLSLSPGERATLSCRASQSVSSSYLAWYQQKPGQAPRLLIYGASSRAPGIPDRFSGTGSGTDFTLTISRLEPEDFAVYYCQQYGISPLTFGGGTKVEIK
modifications: IgG1 constant regions
notes: anti-HCMV gH/gL monoclonal antibody, fusion 1; chimeric and fully human IgG1 versions
What does the source list for B1?
number of virions bound to the cells (TB40/E UL32-eGFP virus): did not significantly change; IC50 of infection, version with human constant regions (HCMV AD169R [1]): 0.37 µg/mL; reduction in plaques (HCMV AD169R [2]): 95%; kdis ([3]; dissociation 3 minutes in PBS): 8.69e-05 s⁻¹; rank of binding constant within the panel ([3]; recombinant pentamer): strongest; neutralization of infection across all strains (HCMV): consistently neutralized infection

— US20250129140A1, “ANTI-HCMV ANTIBODIES AND ANTIGEN-BINDING FRAGMENTS THEREOF” (ICAHN SCHOOL OF MEDICINE AT MOUNT SINAI, priority 2021, published 2025)
